The target in assay [1] is T1, human fibrinogen alpha chain (carrier protein in human plasma) (human, UniProt P02671-2 20-629).
T1 construct: mature; This is the carrier protein of normal plasma that runs at about 65-70 kDa in reducing SDS-PAGE; also called Uniprot P02671
T1 sequence (looked up): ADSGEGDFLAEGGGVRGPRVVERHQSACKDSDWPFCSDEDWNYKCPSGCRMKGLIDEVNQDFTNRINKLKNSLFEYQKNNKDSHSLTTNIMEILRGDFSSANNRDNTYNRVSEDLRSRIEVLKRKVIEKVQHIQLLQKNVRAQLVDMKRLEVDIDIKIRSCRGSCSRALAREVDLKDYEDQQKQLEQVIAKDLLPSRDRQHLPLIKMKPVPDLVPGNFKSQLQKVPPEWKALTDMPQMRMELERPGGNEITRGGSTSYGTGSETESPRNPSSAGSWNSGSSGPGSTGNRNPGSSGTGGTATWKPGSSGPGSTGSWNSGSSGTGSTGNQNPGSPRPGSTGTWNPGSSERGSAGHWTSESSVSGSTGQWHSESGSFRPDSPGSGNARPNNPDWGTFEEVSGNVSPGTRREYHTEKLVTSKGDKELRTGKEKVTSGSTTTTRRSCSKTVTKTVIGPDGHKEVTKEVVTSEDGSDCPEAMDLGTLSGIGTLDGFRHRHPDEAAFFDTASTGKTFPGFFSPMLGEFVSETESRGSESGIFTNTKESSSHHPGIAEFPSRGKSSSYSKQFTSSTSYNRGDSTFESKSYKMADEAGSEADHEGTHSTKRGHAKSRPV
The assay is described as follows: peptide incubated with normal human plasma, reducing SDS-PAGE, western blot with 2B and 043. As for the experimental part:
(§1) Band identity was verified by ponceau S stain followed by Western blot with anti-CIZ1b antibody 043 of a parallel gel (right). B) Gel slices were soaked in 2% SDS-PAGE loading buffer (with 200 mM βME) and separated through a denaturing gel to recover the 043-reactive species at 70 kDa. Note that sample loaded as a gel slice is slightly retardation compared to markers which are loaded in solution. […] C) Western blot of normal human plasma (non-cancer, N) showing reconstitution of CIZ1b epitope via complex formation between a carrier protein in plasma and synthetic CIZ1b peptides of the indicated lengths, but not equivalent CIZ1a peptide (Table 2). Note that free peptides migrate in reducing SDS-PAGE with a relative mobility 3 times expected (˜21 kDa instead of 7.6 kDa for b66, ˜5 kDa instead of 1.6 for b13). None are recognized by CIZ1b antibodies in western blot unless complexed with carrier protein. For CIZ1b66 peptide a new reactive species is created at ˜80 kDa, while CIZ1b13 peptide increases antigenicity at the same mobility as the endogenous epitope in lung cancer plasmas (C, lane 1). D) Western blot of non-reducing SDS-PAGE gel showing purified fibrinogen (6 nmols) in all lanes (upper), with and without prior incubation with 100 pmols of the indicated peptides (Table 2), probed with CIZ1b antibodies as indicated. […]

Assay [2] deals with T1, human fibrinogen alpha chain (carrier …). The assay is described as follows: peptide combined with plasma, western blot.
Assay [3] shares this target. The assay is described as follows: 50 nmols peptide mixed with 0.5 ul non-cancer plasma, western blot. As to the method:
FIG. 3—Ciz1 b-variant ˜65-70 kDa species is a Ciz1 b-variant peptide stably bound to a carrier protein, which may augment antigenicity of Ciz1 b-variant peptide. a) Western blot illustrating cancer-selective epitope recognised by anti-Ciz1 b-variant antibody 2B, as described previously (Higgins et al; as above). b) Reconstitution of a Ciz1 b-variant epitope from synthetic b-variant peptide (50 nmols of […] DFLV—SEQ ID NO: 12) mixed with 0.5 ul of non-cancer plasma. Free peptide migrates with mobility indicative of a MW 3-4× greater than predicted (˜30 kDa instead of 7.6 kDa), indicated by blue arrow. When incubated in plasma mobility decreases, antigenicity increases, and a new species is created at ˜80 kDa, indicated by red arrow. c) Similar results were generated with a separate anti-Ciz1 b-variant monoclonal antibody. d) For reference, a duplicate blot is probed with a monoclonal antibody that is selective for the exon 14a version of the peptide ([…]—SEQ ID NO: 13), showing detection of the peptide in lanes 1 and 3. Key: Lane 1, WT peptide only. Lane 2, B-var peptide only. Lane 3, WT peptide+normal plasma. Lane 4, B-var peptide+normal plasma. Lane 5, normal plasma only. […] F) Western blot showing titration of short peptide ([…]—SEQ ID NO: 2) into cancer patient plasma, detected with anti-Ciz1 b-variant monoclonal antibody (upper) or anti-Ciz1 b-variant polyclonal antibody 043 (lower).
A general note: Immunoblotting shows a protein as a band on a membrane.

Assay [4] shares this target. The assay is described as follows: peptide incubated with normal human plasma, western blot (FIG. 10C). As to the method: as §1

No end group written: not given here.

As to CDEEEIEVRSRDIS-NH2 (also called CIZ1b13) [Short CIZ1b peptide (b13)], the binding result in assay [1] is listed as “binds”.

B1: Short Ciz1 b-variant peptide DEEEIEVRSRDIS (peptide)
peptide: DEEEIEVRSRDIS
notes: also called short b-variant peptide; short peptide
Take B1: the binding result in assay [2] was “binds”.

B2: Long Ciz1 b-variant peptide (SEQ ID NO: 12) (peptide)
peptide: EIAGQDEDHFITVDAVGCFEGDEEEEEDDEDEEEIEVRSRDISREEWKGSETYSPNTAYGVDFLV
notes: also called synthetic b-variant peptide; B-var peptide
With B2, in assay [3], the binding result is “binds”.

B3: Long CIZ1b peptide (b66) (peptide)
peptide: EIAGQDEDHFITVDAVGCFEGDEEEEEDDEDEEEIEVRSRDISREEWKGSETYSPNTAYGVDFLVP
notes: also called CIZ1b66
As for B3, the binding result in assay [4] is reported as “binds”.

Source of the values: US20180306795A1 (CIZZLE BIOTECHNOLOGY, published 2018).
